Data on eight variants can be found in IntAct's records for PubMed 24879152.

First the molecules themselves.
B1: Next to BRCA1 gene 1 protein (Homo sapiens), Q14596 (parent)
chain: MEPQVTLNVTFKNEIQSFLVSDPENTTWADIEAMVKVSFDLNTIQIKYLDEENEEVSINSQGEYEEALKMAVKQGNQLQMQVHEGHHVVDEAPPPVVGAKRLAARAGKKPLAHYSSLVRVLGSDMKTPEDPAVQSFPLVPCDTDQPQDKPPDWFTSYLETFREQVVNETVEKLEQKLHEKLVLQNPSLGSCPSEVSMPTSEETLFLPENQFSWHIACNNCQRRIVGVRYQCSLCPSYNICEDCEAGPYGHDTNHVLLKLRRPVVGSSEPFCHSKYSTPRLPAALEQVRLQKQVDKNFLKAEKQRLRAEKKQRKAEVKELKKQLKLHRKIHLWNSIHGLQSPKSPLGRPESLLQSNTLMLPLQPCTSVMPMLSAAFVDENLPDGTHLQPGTKFIKHWRMKNTGNVKWSADTKLKFMWGNLTLASTEKKDVLVPCLKAGHVGVVSVEFIAPALEGTYTSHWRLSHKGQQFGPRVWCSIIVDPFPSEESPDNIEKGMISSSKTDDLTCQQEETFLLAKEERQLGEVTEQTEGTAACIPQKAKNVASERELYIPSVDLLTAQDLLSFELLDINIVQELERVPHNTPVDVTPCMSPLPHDSPLIEKPGLGQIEEENEGAGFKALPDSMVSVKRKAENIASVEEAEEDLSGTQFVCETVIRSLTLDAAPDHNPPCRQKSLQMTFALPEGPLGNEKEEIIHIAEEEAVMEEEEDEEDEEEEDELKDEVQSQSSASSEDYIIILPECFDTSRPLGDSMYSSALSQPGLERGAEGKPGVEAGQEPAEAGERLPGGENQPQEHSISDILTTSQTLETVPLIPEVVELPPSLPRSSPCVHHHGSPGVDLPVTIPEVSSVPDQIRGEPRGSSGLVNSRQKSYDHSRHHHGSSIAGGLVKGALSVAASAYKALFAGPPVTAQPIISEDQTAALMAHLFEMGFCDRQLNLRLLKKHNYNILQVVTELLQLNNNDWYSQRY
B2: Glycogen synthase kinase-3 alpha (Homo sapiens), P49840 (parent)
chain: MSGGGPSGGGPGGSGRARTSSFAEPGGGGGGGGGGPGGSASGPGGTGGGKASVGAMGGGVGASSSGGGPGGSGGGGSGGPGAGTSFPPPGVKLGRDSGKVTTVVATLGQGPERSQEVAYTDIKVIGNGSFGVVYQARLAETRELVAIKKVLQDKRFKNRELQIMRKLDHCNIVRLRYFFYSSGEKKDELYLNLVLEYVPETVYRVARHFTKAKLTIPILYVKVYMYQLFRSLAYIHSQGVCHRDIKPQNLLVDPDTAVLKLCDFGSAKQLVRGEPNVSYICSRYYRAPELIFGATDYTSSIDVWSAGCVLAELLLGQPIFPGDSGVDQLVEIIKVLGTPTREQIREMNPNYTEFKFPQIKAHPWTKVFKSRTPPEAIALCSSLLEYTPSSRLSPLEACAHSFFDELRCLGTQLPNNRPLPPLFNFSAGELSIQPSLNAILIPPHLRSPAGTTTLTPSSQALTETPTSSDWQSTDATPTLTNSS
partner: B1 chain

One assay covers variants of B1. The conditions noted are these: with gsk3a_human GSK3A.
On to S590A, for which the “effect of a mutation on the interaction” value is recorded as “with no effect”.
Still for that read-out and setting: next, T586A: “with no effect”.
As to T581A;T586A;S590A, the “effect of a mutation on the interaction” value is given as “decreasing interaction strength”.
Regarding T586A;S590A, the “effect of a mutation on the interaction” value is reported as “with no effect”.
Regarding T581A, the “effect of a mutation on the interaction” value is “decreasing interaction strength”.

Variants of B1 are the subject of another assay. The conditions noted are these: with gsk3b_human GSK3B.
For T581A;T586A;S590A, the “effect of a mutation on the interaction” value is recorded as “disrupting interaction strength”.
On to T581A, for which the “effect of a mutation on the interaction” value was “with no effect”.

In a further assay the parent is B1. The conditions noted are these: with ubc_human UBC.
With T586A;S590A, the “effect of a mutation on the interaction” value is “with no effect”.
On to T586E;S590E, for which the “effect of a mutation on the interaction” value was “with no effect”.

A further assay covers variants of B1. The conditions noted are these: with mlp3b_human MAP1LC3B.
As for T586A;S590A, the “effect of a mutation on the interaction” value was “with no effect”.
Regarding T586E;S590E, the “effect of a mutation on the interaction” value was “with no effect”.

The variants in another assay derive from B1. The conditions noted are these: with gbrap_human GABARAP.
In the case of T586A;S590A, the “effect of a mutation on the interaction” value is “with no effect”.
T586E;S590E: the “effect of a mutation on the interaction” value is “with no effect”.

The variants in another assay derive from B1. The conditions noted are these: with mlp3b_mouse Map1lc3b.
For the variant T586A;S590A, the “effect of a mutation on the interaction” value is given as “with no effect”.
Take T586E;S590E: the “effect of a mutation on the interaction” value is recorded as “with no effect”.

In the next assay the parent is B2. The conditions noted are these: with nbr1_human NBR1, Q14596.
For the variant S21A, the “effect of a mutation on the interaction” value was “with no effect”.
For K148A, the “effect of a mutation on the interaction” value was “disrupting interaction strength”.
